What was measured:
[1] = target: IL-1 receptor (IL-1R) (rat) (UniProt Q02955); test: co-immunoprecipitation, adult control rats, hippocampal synaptosomes, mean±SEM
[2] = target: IL-1 receptor (IL-1R) (rat) (UniProt Q02955); test: co-immunoprecipitation, adult ENV-expressing rats, hippocampal synaptosomes, mean±SEM

Chain of UniProt Q02955 (Q02955 20-576): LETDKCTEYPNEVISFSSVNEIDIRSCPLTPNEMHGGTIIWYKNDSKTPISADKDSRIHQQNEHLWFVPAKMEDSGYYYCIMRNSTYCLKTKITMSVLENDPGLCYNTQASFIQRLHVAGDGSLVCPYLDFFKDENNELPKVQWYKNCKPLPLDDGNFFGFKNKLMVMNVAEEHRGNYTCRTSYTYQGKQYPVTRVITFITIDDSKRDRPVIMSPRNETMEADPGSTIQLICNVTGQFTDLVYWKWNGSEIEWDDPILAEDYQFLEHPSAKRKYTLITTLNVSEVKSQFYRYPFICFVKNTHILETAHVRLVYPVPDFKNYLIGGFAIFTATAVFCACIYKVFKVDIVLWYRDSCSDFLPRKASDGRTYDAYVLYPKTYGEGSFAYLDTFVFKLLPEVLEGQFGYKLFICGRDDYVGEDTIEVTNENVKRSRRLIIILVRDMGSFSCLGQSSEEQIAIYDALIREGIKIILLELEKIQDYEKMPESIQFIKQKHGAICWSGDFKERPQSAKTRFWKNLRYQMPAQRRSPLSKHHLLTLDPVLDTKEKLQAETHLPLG

Row | co-IP GluN2A/IL-1R (normalised to control animals) [1] | co-IP GluN2A/IL-1R (normalised to control animals) [2] | co-IP GluN2B/IL-1R (normalised to control animals) [1] | co-IP GluN2B/IL-1R (normalised to control animals) [2] | Substance
1 | 1 | 1.04 |  |  | GluN2A-NMDAR (GluN2A-containing NMDA receptor) (from UniProt Q00959 23-1464)
2 |  |  | 1 | 0.95 | GluN2B-NMDAR (GluN2B-containing NMDA receptor) (from UniProt Q00960 27-1482)

Reference: patent US20240301040A1
